Values of other authors in publication PMC2957019 (Journal of labelled compounds & radiopharmaceuticals, 2009).
Where no end group is shown, it is not given here.

Conditions: incubation in serum

^125I-FROP-1: 12-amino acid synthetic peptide radiolabeled with iodine (EDYELMDLLAYL), selected by phage display for targeting thyroid carcinoma cells (also: 125I radiolabel)
time to degradation in serum: ≤ 30 min
